Results reported in patent US20240092930A1 (MABWELL SHANGHAI BIOSCIENCE, published 2024).
Positions count from the first letter of the chain named.

T1: recombinant human Trop-2-his protein (ACCESSION NO.: NP_002344.2, AA 1-274) (human, UniProt P09758 27-274)
T1 construct: range 27-274; also called recombinant human Trop-2 protein; recombinant human Trop-2 extracellular domain; not shown: his tag
T1 sequence (looked up): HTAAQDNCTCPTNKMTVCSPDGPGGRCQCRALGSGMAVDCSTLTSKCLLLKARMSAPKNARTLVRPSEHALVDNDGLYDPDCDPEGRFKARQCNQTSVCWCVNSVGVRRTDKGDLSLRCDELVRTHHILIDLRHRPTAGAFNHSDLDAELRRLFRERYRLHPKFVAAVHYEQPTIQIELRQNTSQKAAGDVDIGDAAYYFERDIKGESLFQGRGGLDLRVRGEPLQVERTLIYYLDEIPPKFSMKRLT

B1: h23-12-1 (antibody, human IgG1, kappa, V domains shown)
VH: QVQLVQSGAEVKKPGASVKVSCKASGYTFTSYWMHWVRQAPGQGLEWMGEITPSDNYTSYNQKFKGRVTITRDTSTSTAYMELSSLRSEDTAVYYCARGHGNYVSFDYWGQGTLVTVSS
VL: DIQMTQSPSSLSASVGDRVTITCRASQDISNYLNWYQQKPGKAPKLLIYYTSRLHSGVPSRFSGSGSGTDFTLTISSLQPEDFATYFCQQGYTLPPYTFGQGTKLEIKR
notes: also called CDR grafted antibody 23-12
B2: h23-12-3 (antibody, human IgG1, kappa, V domains shown)
VH: B1 VH with N56G
VL: B1 VL
B3: h23-12-33 (antibody, human IgG1, kappa, V domains shown)
VH: B1 VH with N61A
VL: B1 VL with H55Q
B4: h23-12-13 (antibody, human IgG1, kappa, V domains shown)
VH: B1 VH with H100E
VL: B1 VL with T51A
B5: h23-12-22 (antibody, human IgG1, kappa, V domains shown)
VH: B1 VH
VL: B1 VL with H55E
B6: h23-12-18 (antibody, human IgG1, kappa, V domains shown)
VH: B1 VH with T58G
VL: B1 VL with R53S
B7: h23-12-43 (antibody, human IgG1, kappa, V domains shown)
VH: B1 VH
VL: B1 VL with T93S
B8: h23-12-32 (antibody, human IgG1, kappa, V domains shown)
VH: B1 VH with T58G
VL: B1 VL with H55Q
B9: h23-12-21 (antibody, human IgG1, kappa, V domains shown)
VH: B1 VH with H100Q
VL: B1 VL with R53S
B10: h23-12-28 (antibody, human IgG1, kappa, V domains shown)
VH: B1 VH with H100Q
VL: B1 VL with H55E
B11: h23-12-40 (antibody, human IgG1, kappa, V domains shown)
VH: B1 VH with N61A
VL: B1 VL with G91Y
B12: h23-12-30 (antibody, human IgG1, kappa, V domains shown)
VH: B1 VH with S54G
VL: B1 VL with H55Q
B13: h23-12-16 (antibody, human IgG1, kappa, V domains shown)
VH: B1 VH with S54G
VL: B1 VL with R53S
B14: h23-12-26 (antibody, human IgG1, kappa, V domains shown)
VH: B1 VH with N61A
VL: B1 VL with H55E
B15: h23-12-42 (antibody, human IgG1, kappa, V domains shown)
VH: B1 VH with H100Q
VL: B1 VL with G91Y
B16: h23-12-19 (antibody, human IgG1, kappa, V domains shown)
VH: B1 VH with N61A
VL: B1 VL with R53S
B17: h23-12-20 (antibody, human IgG1, kappa, V domains shown)
VH: B1 VH with H100E
VL: B1 VL with R53S
B18: h23-12-8 (antibody, human IgG1, kappa, V domains shown)
VH: B1 VH
VL: B1 VL with T51A
B19: h23-12-34 (antibody, human IgG1, kappa, V domains shown)
VH: B1 VH with H100E
VL: B1 VL with H55Q
B20: h23-12-2 (antibody, human IgG1, kappa, V domains shown)
VH: B1 VH with S54G
VL: B1 VL
B21: h23-12-37 (antibody, human IgG1, kappa, V domains shown)
VH: B1 VH with S54G
VL: B1 VL with G91Y
B22: h23-12-23 (antibody, human IgG1, kappa, V domains shown)
VH: B1 VH with S54G
VL: B1 VL with H55E
B23: h23-12-36 (antibody, human IgG1, kappa, V domains shown)
VH: B1 VH
VL: B1 VL with G91Y
B24: h23-12-11 (antibody, human IgG1, kappa, V domains shown)
VH: B1 VH with T58G
VL: B1 VL with T51A
B25: h23-12-17 (antibody, human IgG1, kappa, V domains shown)
VH: B1 VH with N56G
VL: B1 VL with R53S
B26: h23-12-31 (antibody, human IgG1, kappa, V domains shown)
VH: B1 VH with N56G
VL: B1 VL with H55Q
B27: h23-12-24 (antibody, human IgG1, kappa, V domains shown)
VH: B1 VH with N56G
VL: B1 VL with H55E
B28: h23-12-5 (antibody, human IgG1, kappa, V domains shown)
VH: B1 VH with N61A
VL: B1 VL
B29: h23-12-14 (antibody, human IgG1, kappa, V domains shown)
VH: B1 VH with H100Q
VL: B1 VL with T51A
B30: h23-12-12 (antibody, human IgG1, kappa, V domains shown)
VH: B1 VH with N61A
VL: B1 VL with T51A
B31: h23-12-38 (antibody, human IgG1, kappa, V domains shown)
VH: B1 VH with N56G
VL: B1 VL with G91Y
B32: h23-12-41 (antibody, human IgG1, kappa, V domains shown)
VH: B1 VH with H100E
VL: B1 VL with G91Y
B33: h23-12-44 (antibody, human IgG1, kappa, V domains shown)
VH: B1 VH with S54G
VL: B1 VL with T93S
B34: h23-12-15 (antibody, human IgG1, kappa, V domains shown)
VH: B1 VH
VL: B1 VL with R53S
B35: h23-12-10 (antibody, human IgG1, kappa, V domains shown)
VH: B1 VH with N56G
VL: B1 VL with T51A
B36: h23-12-6 (antibody, human IgG1, kappa, V domains shown)
VH: B1 VH with H100E
VL: B1 VL
B37: h23-12-29 (antibody, human IgG1, kappa, V domains shown)
VH: B1 VH
VL: B1 VL with H55Q
B38: h23-12-39 (antibody, human IgG1, kappa, V domains shown)
VH: B1 VH with T58G
VL: B1 VL with G91Y
B39: h23-12-9 (antibody, human IgG1, kappa, V domains shown)
VH: B1 VH with S54G
VL: B1 VL with T51A
B40: h23-12-4 (antibody, human IgG1, kappa, V domains shown)
VH: B1 VH with T58G
VL: B1 VL
B41: h23-12-27 (antibody, human IgG1, kappa, V domains shown)
VH: B1 VH with H100E
VL: B1 VL with H55E
B42: h23-12-7 (antibody, human IgG1, kappa, V domains shown)
VH: B1 VH with H100Q
VL: B1 VL
B43: h23-12-35 (antibody, human IgG1, kappa, V domains shown)
VH: B1 VH with H100Q
VL: B1 VL with H55Q

These binders were tested against T1, recombinant human Trop-2-his protein … (assay: BLI, antibody on AHC sensor, Trop-2-his 60 nM).
Experimental: 5-6 days after cell transfection, culture supernatants were purified through ProA affinity chromatography column to obtain different humanized antibodies. Affinities of the obtained antibodies were determined by an assay including capturing Fc fragments of the antibodies with anti-human IgG Fc capture (AHC) biosensors using Octet QKe system instrument from Fortebio. For the assay, each of the humanized antibodies and control antibody Sacituzumab was diluted to 4 μg/ml in PBS, and was allowed to flow through the surface of an AHC biosensor (Cat.: 18-0015, PALL) for 120 s. Recombinant human Trop-2-his protein (ACCESSION NO.: NP_002344.2, AA 1-274) was used as a mobile phase, and its concentration was 60 nM. The binding time was 100 s and the dissociation time was 300 s. When the assay was finished, data from which the response values of blank control had been deducted were fitted to a 1:1 Langmuir binding model using software, and then kinetic constants for antigen-antibody binding were calculated.
Affinities of the antibodies obtained from the combinations of mutants of murine antibody 23-12, chimeric antibody ch23-12 and control antibody Sacituzumab to recombinant human Trop-2-his protein were determined by ForteBijo (Table 5).
Work on B1 yielded a Kd of 0.272 nM.
Work on B2 yielded a Kd of 15 nM.
In the case of B3, the Kd is reported as 8.91 nM.
Binder B4 has a Kd of 0.916 nM.
Binder B5 has a Kd of 1.3 nM.
Work on B6 yielded a Kd of 0.991 nM.
For B7, the Kd was 0.98 nM.
With B8 the Kd was 0.601 nM.
Binder B9 has a Kd of 22.8 nM.
B10 was tested, and the Kd was 4.13 nM.
B11 was tested, and the Kd was 2.16 nM.
B12 was tested, and the Kd was 9.76 nM.
B13 gave a Kd of 2.87 nM.
In the case of B14, the Kd is reported as 5.43 nM.
B15 was tested, and the Kd was 3.09 nM.
B16 gave a Kd of 10 nM.
In the case of B17, the Kd is reported as 1.46 nM.
In the case of B18, the Kd is reported as 0.9 nM.
B19 gave a Kd of 5.57 nM.
Binder B20 has a Kd of 0.893 nM.
B21 was tested, and the Kd was 0.893 nM.
For B22, the Kd was 0.77 nM.
B23 gave a Kd of 8.81 nM.
B24 gave a Kd of 0.881 nM.
In the case of B25, the Kd is reported as 28 nM.
Work on B26 yielded a Kd of 63.9 nM.
B27 showed a Kd of 5.21 nM.
B28 gave a Kd of 3.2 nM.
Binder B29 has a Kd of 23.9 nM.
Work on B30 yielded a Kd of 26.2 nM.
With B31 the Kd was 7.86 nM.
Work on B32 yielded a Kd of 0.782 nM.
B33 was tested, and the Kd was 0.717 nM.
In the case of B34, the Kd is reported as 1.43 nM.
Binder B35 has a Kd of 9.62 nM.
Work on B36 yielded a Kd of 0.298 nM.
Work on B37 yielded a Kd of 6.72 nM.
For B38, the Kd was 0.492 nM.
B39 showed a Kd of 1.1 nM.
B40 gave a Kd of 0.827 nM.
Binder B41 has a Kd of 0.496 nM.
Binder B42 has a Kd of 6.8 nM.
In the case of B43, the Kd is reported as 9.77 nM.
